Results as given in patent publication US8673311B2 (priority 2009, dated 2014).

Tested on: PY79 spores
Assay type: physicochemical, B. subtilis

Substance: listeriolysin from Listeria monocytogenes: immunogen shown to bind to the spore
- binding of other immunogens to the spore: can bind to the spore in a pH-dependant manner
